Measurements taken from IntAct's records for PubMed 31515488.

B1: Fibronectin type III and SPRY domain-containing protein 2 (Homo sapiens), A1L4K1 (parent)
chain: MEEESGEELGLDRSTPKDFHFYHMDLYDSEDRLHLFPEENTRMRKVVQAEMANESRGAGDGKAQRDLQEEVDELVHLYGLEDDHELGDEFVDENIPRTGVSEYPPYMMKRRDPAREQRDWRLSGEAAEAEDLGFGGWGSAGQCQDLREAYRYTHGRASEEYECYVIPEEEDEEEAADVFCVTCKTPIRAFQKVFDEHKEHEVIPLNEALESAKDEIHKNMYKLEKQIIEMENFANHLEEVFITVEENFGKQEQNFESHYNEILETLAQKYEEKIQALGEKKKEKLEALYGQLVSCGENLDTCKELMETIEEMCHEEKVDFIKDAVAMADRLGKFLKTKTDVEISAQPEFEDQTLDFSDVEQLMGSINTIPAPSAPVINPQVPNSATGSSVRVCWSLYSDDTVESYQLSYRPVQDSSPGTDQAEFTVTVKETYCSVTNLVPNTQYEFWVTAHNRAGPSPSSERAVYMTAPSPPIIKTKEIRSCEEAVLICWESGNLNPVDSYTVELTQAESPEASGVTESVVGIPTCESVVQLQPGRSYIIYVRALNMGGPSVRSEPATVHTIGSYFRLNKDTCHPWLTISEDGLTAVRSERRTPARELSPSDTHFTRCVAVMGNLIPVRGHHYWEVEVDEHLDYRVGVAFADVRKQEDLGANCLSWCMRHTFASSRHKYEFLHNRTTPDIRITVPPKKIGILLDYEHSKLSFFNVDLSQHLYTFSCQLHEFVHPCFSLEKPGCLKVHNGISMPKHVTFY
partner: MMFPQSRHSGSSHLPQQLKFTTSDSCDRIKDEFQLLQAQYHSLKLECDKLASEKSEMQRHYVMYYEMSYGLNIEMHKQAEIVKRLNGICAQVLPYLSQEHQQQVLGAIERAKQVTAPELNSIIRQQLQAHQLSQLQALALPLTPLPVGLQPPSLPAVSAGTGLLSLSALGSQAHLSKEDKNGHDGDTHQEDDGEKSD
B2: CD2 antigen cytoplasmic tail-binding protein 2 (Homo sapiens), O95400 (parent)
chain: MPKRKVTFQGVGDEEDEDEIIVPKKKLVDPVAGSGGPGSRFKGKHSLDSDEEEDDDDGGSSKYDILASEDVEGQEAATLPSEGGVRITPFNLQEEMEEGHFDADGNYFLNRDAQIRDSWLDNIDWVKIRERPPGQRQASDSEEEDSLGQTSMSAQALLEGLLELLLPRETVAGALRRLGARGGGKGRKGPGQPSSPQRLDRLSGLADQMVARGNLGVYQETRERLAMRLKGLGCQTLGPHNPTPPPSLDMFAEELAEEELETPTPTQRGEAESRGDGLVDVMWEYKWENTGDAELYGPFTSAQMQTWVSEGYFPDGVYCRKLDPPGGQFYNSKRIDFDLYT
B3: DNA topoisomerase 3-beta-1 (Homo sapiens), O95985 (parent)
chain: MKTVLMVAEKPSLAQSIAKILSRGSLSSHKGLNGACSVHEYTGTFAGQPVRFKMTSVCGHVMTLDFLGKYNKWDKVDPAELFSQAPTEKKEANPKLNMVKFLQVEGRGCDYIVLWLDCDKEGENICFEVLDAVLPVMNKAHGGEKTVFRARFSSITDTDICNAMACLGEPDHNEALSVDARQELDLRIGCAFTRFQTKYFQGKYGDLDSSLISFGPCQTPTLGFCVERHDKIQSFKPETYWVLQAKVNTDKDRSLLLDWDRVRVFDREIAQMFLNMTKLEKEAQVEATSRKEKAKQRPLALNTVEMLRVASSSLGMGPQHAMQTAERLYTQGYISYPRTETTHYPENFDLKGSLRQQANHPYWADTVKRLLAEGINRPRKGHDAGDHPPITPMKSATEAELGGDAWRLYEYITRHFIATVSHDCKYLQSTISFRIGPELFTCSGKTVLSPGFTEVMPWQSVPLEESLPTCQRGDAFPVGEVKMLEKQTNPPDYLTEAELITLMEKHGIGTDASIPVHINNICQRNYVTVESGRRLKPTNLGIVLVHGYYKIDAELVLPTIRSAVEKQLNLIAQGKADYRQVLGHTLDVFKRKFHYFVDSIAGMDELMEVSFSPLAATGKPLSRCGKCHRFMKYIQAKPSRLHCSHCDETYTLPQNGTIKLYKELRCPLDDFELVLWSSGSRGKSYPLCPYCYNHPPFRDMKKGMGCNECTHPSCQHSLSMLGIGQCVECESGVLVLDPTSGPKWKVACNKCNVVAHCFENAHRVRVSADTCSVCEAALLDVDFNKAKSPLPGDETQHMGCVFCDPVFQELVELKHAASCHPMHRGGPGRRQGRGRGRARRPPGKPNPRRPKDKMSALAAYFV
B4: Transcription factor 12 (Homo sapiens), Q99081-3 (parent)
chain: MNPQQQRMAAIGTDKELSDLLDFSAMFSPPVNSGKTRPTTLGSSQFSGSGIDERGGTTSWGTSGQPSPSYDSSRGFTDSPHYSDHLNDSRLGAHEGLSPTPFMNSNLMGKTSERGSFSLYSRDTGLPGCQSSLLRQDLGLGSPAQLSSSGKPGTAYYSFSATSSRRRPLHDSAALDPLQAKKVRKVPPGLPSSVYAPSPNSDDFNRESPSYPSPKPPTSMFASTFFMQDGTHNSSDLWSSSNGMSQPGFGGILGTSTSHMSQSSSYGNLHSHDRLSYPPHSVSPTDINTSLPPMSSFHRGSTSSSPYVAASHTPPINGSDSILGTRGNAAGSSQTGDALGKALASIYSPDHTSSSFPSNPSTPVGSPSPLTGTSQWPRPGGQAPSSPSYENSLHSLKNRVEQQLHEHLQDAMSFLKDVCEQSRMEDRLDRLDDAIHVLRNHAVGPSTSLPAGHSDIHSLLGPSHNAPIGSLNSNYGGSSLVASSRSASMVGTHREDSVSLNGNHSVLSSTVTTSSTDLNHKTQENYRGGLQSQSGTVVTTEIKTENKEKDENLHEPPSSDDMKSDDESSQKDIKVSSRGRTSSTNEDEDLNPEQKIEREKERRMANNARERLRVRDINEAFKELGRMCQLHLKSEKPQTKLLILHQAVAVILSLEQQVRERNLNPKAACLKRREEEKVSAVSAEPPTTLPGTHPGLSETTNPMGHM
partner: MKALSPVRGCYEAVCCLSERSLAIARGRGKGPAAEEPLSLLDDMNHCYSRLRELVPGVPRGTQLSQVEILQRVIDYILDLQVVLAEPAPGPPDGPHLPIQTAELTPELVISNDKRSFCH
B5: Retinoic acid receptor RXR-gamma (Homo sapiens), P48443 (parent)
chain: MYGNYSHFMKFPAGYGGSPGHTGSTSMSPSAALSTGKPMDSHPSYTDTPVSAPRTLSAVGTPLNALGSPYRVITSAMGPPSGALAAPPGINLVAPPSSQLNVVNSVSSSEDIKPLPGLPGIGNMNYPSTSPGSLVKHICAICGDRSSGKHYGVYSCEGCKGFFKRTIRKDLIYTCRDNKDCLIDKRQRNRCQYCRYQKCLVMGMKREAVQEERQRSRERAESEAECATSGHEDMPVERILEAELAVEPKTESYGDMNMENSTNDPVTNICHAADKQLFTLVEWAKRIPHFSDLTLEDQVILLRAGWNELLIASFSHRSVSVQDGILLATGLHVHRSSAHSAGVGSIFDRVLTELVSKMKDMQMDKSELGCLRAIVLFNPDAKGLSNPSEVETLREKVYATLEAYTKQKYPEQPGRFAKLLLRLPALRSIGLKCLEHLFFFKLIGDTPIDTFLMEMLETPLQIT
partner: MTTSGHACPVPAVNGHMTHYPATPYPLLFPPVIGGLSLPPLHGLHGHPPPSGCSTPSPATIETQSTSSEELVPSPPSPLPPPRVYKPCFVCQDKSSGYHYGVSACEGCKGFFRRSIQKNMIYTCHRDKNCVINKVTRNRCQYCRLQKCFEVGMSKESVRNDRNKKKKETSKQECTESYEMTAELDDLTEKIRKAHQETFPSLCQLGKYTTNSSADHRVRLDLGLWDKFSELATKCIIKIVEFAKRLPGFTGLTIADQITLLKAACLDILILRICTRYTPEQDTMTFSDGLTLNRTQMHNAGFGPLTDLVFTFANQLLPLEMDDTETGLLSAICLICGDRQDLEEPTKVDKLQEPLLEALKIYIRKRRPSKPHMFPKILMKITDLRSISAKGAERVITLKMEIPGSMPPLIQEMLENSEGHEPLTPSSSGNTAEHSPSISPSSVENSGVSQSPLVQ
B6: Beta-taxilin (Homo sapiens), Q8N3L3 (parent)
chain: MEANHSEQLSAERQSTPPGDSSSLPSHNGLEKEDGQDSPTPVQPPEKEASVHPDISEELNRQLEDIINTYGSAASTAGKEGSARASEQPENAESPDNEDGDCEETTEEAGREPVASGEPPTVKEPVSNKEQKLEKKILKGLGKEANLLMQNLNKLQTPEEKFDFLFKKYAELLDEHRTEQKKLKLLQKKQVQIQKEKDQLQGEHSRAILARSKLESLCRELQRHNKTLKEEALQRAREEEEKRKEITSHFQSTLTDIQGQIEQQSERNMKLCQENTELAEKLKSIIDQYELREEHLDKIFKHRELQQKLVDAKLEQAQEMMKEAEERHKREKEYLLNQAAEWKLQAKVLKEQETVLQAQLTLYSGRFEEFQSTLTKSNEVFATFKQEMDKTTKKMKKLEKDTATWKARFENCNKALLDMIEEKALRAKEYECFVMKIGRLENLCRALQEERNELHKKIRDAEISEKDDQSQHNSDEEPESNVSVDQEIDAEEVNSVQTAVKNLATAFMIIHHPESTPHQSKETQPEIGSSQESADAALKEPEQPPLIPSRDSESPLPPLTPQAEAEGGSDAEPPSKASNSPAGLGAETQCEGLPVGAQADQASWKPEAEASGQAPQAPTEASLQKMEADVPAPACAAEEHVAAMVPACEPSRQPPRAAAEELPVGASAGPQPRNVADTNLEGVD
B7: Transmembrane protein 79 (Homo sapiens), Q9BSE2 (parent)
chain: MTEQETLALLEVKRSDSPEKSSPQALVPNGRQPEGEGGAESPGAESLRVGSSAGSPTAIEGAEDGLDSTVSEAATLPWGTGPQPSAPFPDPPGWRDIEPEPPESEPLTKLEELPEDDANLLPEKAARAFVPIDLQCIERQPQEDLIVRCEAGEGECRTFMPPRVTHPDPTERKWAEAVVRPPGCSCGGCGSCGDREWLRAVASVGAALILFPCLLYGAYAFLPFDVPRLPTMSSRLIYTLRCGVFATFPIVLGILVYGLSLLCFSALRPFGEPRREVEIHRRYVAQSVQLFILYFFNLAVLSTYLPQDTLKLLPLLTGLFAVSRLIYWLTFAVGRSFRGFGYGLTFLPLLSMLMWNLYYMFVVEPERMLTATESRLDYPDHARSASDYRPRPWG

Variants of: B1
Conditions: with tle5_human TLE5, Q08117

Row | effect of a mutation on the interaction | Variant
1 | with no effect | E720K

Variants of: B2
Conditions: with rsmb_human SNRPB

Row | effect of a mutation on the interaction | Variant
2 | with no effect | T262I

Variants of: B3
Conditions: with trim1_human MID2, Q9UJV3
Chain of trim1_human MID2, Q9UJV3 (Q9UJV3 whole entry): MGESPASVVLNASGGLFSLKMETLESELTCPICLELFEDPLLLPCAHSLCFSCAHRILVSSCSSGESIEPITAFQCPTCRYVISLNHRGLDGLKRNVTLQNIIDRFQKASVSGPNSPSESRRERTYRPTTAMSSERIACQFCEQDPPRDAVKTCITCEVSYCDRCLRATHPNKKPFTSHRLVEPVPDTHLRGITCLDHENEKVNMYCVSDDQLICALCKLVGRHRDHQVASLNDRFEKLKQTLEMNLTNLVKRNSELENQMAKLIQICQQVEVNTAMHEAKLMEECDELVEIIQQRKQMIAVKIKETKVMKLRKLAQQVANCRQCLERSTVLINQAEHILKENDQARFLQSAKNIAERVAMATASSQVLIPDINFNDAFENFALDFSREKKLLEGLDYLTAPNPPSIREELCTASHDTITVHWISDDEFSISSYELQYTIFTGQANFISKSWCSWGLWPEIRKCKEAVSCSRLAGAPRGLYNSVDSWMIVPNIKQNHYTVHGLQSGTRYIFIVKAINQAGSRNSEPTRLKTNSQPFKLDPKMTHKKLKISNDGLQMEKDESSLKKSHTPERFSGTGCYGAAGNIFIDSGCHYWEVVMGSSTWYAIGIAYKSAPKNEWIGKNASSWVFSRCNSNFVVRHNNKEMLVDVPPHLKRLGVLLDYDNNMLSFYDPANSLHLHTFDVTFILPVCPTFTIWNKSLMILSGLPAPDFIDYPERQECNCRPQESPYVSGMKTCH

Row | effect of a mutation on the interaction | Variant
3 | disrupting interaction strength | R267W

Variants of: B3
Conditions: with tri41_human TRIM41, Q8WV44

Row | effect of a mutation on the interaction | Variant
4 | disrupting interaction strength | R267W

Variants of: B4
Conditions: with id3_human ID3, Q02535

Row | Variant | effect of a mutation on the interaction
5 | R74G | with no effect
6 | A155T | with no effect
7 | Y120C | with no effect
8 | S446F | with no effect

Next, values leading:

Row | effect of a mutation on the interaction | Variant
9 | with no effect | N606H
10 | with no effect | A482V

Variants of: B5
Conditions: with rarb_human RARB

Row | effect of a mutation on the interaction | Variant
11 | with no effect | A86V

Variants of: B6
Conditions: with cep70_human CEP70, Q8NHQ1
Chain of cep70_human CEP70, Q8NHQ1 (Q8NHQ1 whole entry): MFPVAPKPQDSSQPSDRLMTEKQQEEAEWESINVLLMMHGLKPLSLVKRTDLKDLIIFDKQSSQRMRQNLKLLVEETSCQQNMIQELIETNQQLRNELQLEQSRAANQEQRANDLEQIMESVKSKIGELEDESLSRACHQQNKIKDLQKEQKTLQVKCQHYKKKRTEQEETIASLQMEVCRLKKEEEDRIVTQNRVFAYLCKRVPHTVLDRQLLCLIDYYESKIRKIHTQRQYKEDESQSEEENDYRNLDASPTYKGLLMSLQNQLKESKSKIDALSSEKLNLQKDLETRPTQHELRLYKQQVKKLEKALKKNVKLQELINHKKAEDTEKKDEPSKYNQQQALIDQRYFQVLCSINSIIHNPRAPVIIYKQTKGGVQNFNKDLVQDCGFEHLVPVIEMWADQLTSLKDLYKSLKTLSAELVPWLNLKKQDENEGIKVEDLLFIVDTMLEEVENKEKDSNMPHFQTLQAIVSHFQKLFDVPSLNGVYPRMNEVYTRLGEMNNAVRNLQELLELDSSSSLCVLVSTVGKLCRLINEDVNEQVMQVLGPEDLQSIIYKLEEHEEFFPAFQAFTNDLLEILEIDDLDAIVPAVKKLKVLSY

Row | effect of a mutation on the interaction | Variant
12 | with no effect | T523I
13 | with no effect | T361A

Variants of: B6
Conditions: with exoc5_human EXOC5, O00471
Chain of exoc5_human EXOC5, O00471 (O00471 whole entry): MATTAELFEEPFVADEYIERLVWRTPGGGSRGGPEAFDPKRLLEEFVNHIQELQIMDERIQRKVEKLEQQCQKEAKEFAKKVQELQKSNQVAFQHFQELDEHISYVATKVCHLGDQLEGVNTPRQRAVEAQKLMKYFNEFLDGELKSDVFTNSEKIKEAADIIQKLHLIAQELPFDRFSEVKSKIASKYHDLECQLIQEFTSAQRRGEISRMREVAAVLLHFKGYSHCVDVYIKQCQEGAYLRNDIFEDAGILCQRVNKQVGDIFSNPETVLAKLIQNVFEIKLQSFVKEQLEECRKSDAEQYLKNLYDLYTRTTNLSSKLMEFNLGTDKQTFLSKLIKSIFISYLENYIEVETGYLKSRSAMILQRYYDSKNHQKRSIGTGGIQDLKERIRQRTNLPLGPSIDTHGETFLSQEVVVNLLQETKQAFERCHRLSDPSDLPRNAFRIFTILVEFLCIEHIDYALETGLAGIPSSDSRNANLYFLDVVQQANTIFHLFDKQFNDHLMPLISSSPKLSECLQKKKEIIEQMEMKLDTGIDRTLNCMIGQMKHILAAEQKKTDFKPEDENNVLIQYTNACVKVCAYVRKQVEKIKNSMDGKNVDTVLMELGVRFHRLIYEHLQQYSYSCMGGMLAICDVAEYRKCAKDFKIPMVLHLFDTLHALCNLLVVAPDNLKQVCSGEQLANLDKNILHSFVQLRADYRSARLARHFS

Row | effect of a mutation on the interaction | Variant
14 | with no effect | I527T

Variants of: B6
Conditions: with mbip1_human MBIP

Row | effect of a mutation on the interaction | Variant
15 | with no effect | I527T

Variants of: B7
Conditions: with pspc_human SFTPC

Row | effect of a mutation on the interaction | Variant
16 | with no effect | D144G
17 | with no effect | V147M

Variants of: B7
Conditions: with sarco_human SLN

Row | effect of a mutation on the interaction | Variant
18 | with no effect | D144G
19 | with no effect | V147M

Variants of: B7
Conditions: with sc22a_human SEC22A

Row | effect of a mutation on the interaction | Variant
20 | with no effect | D144G
21 | with no effect | V147M

Variants of: B7
Conditions: with tx264_human TEX264, Q9Y6I9
Chain of tx264_human TEX264, Q9Y6I9 (Q9Y6I9 whole entry): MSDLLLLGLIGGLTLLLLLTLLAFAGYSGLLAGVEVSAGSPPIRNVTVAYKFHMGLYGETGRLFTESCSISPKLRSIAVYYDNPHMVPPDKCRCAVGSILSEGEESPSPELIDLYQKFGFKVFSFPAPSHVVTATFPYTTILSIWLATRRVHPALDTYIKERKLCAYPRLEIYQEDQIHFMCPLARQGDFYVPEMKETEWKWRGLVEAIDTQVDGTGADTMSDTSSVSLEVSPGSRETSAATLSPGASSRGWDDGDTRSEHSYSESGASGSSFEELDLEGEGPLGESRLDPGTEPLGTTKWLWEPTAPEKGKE

Row | effect of a mutation on the interaction | Variant
22 | with no effect | D144G
23 | with no effect | V147M
